Substrate in data set [1]: Nc1ncnc2c1ncn2[C@@H]1O[C@H](COP(=O)(O)OP(=O)(O)OP(=O)(O)O)[C@@H](O)[C@H]1O
Kind of data set: NADH-coupled steady-state ATPase assay. The class given is biochemical, Saccharomyces cerevisiae. To be noted: low ionic strength (21 mM), 20 mM HEPES pH 7.2, 2 mM MgCl2, 7.5 mM KCl, 20% glycerol, 298 K, 25.0 °C. From the text:
NADH-coupled steady-state ATPase assay on Cin8-His (Cin8 motor domain)

Data set [2] concerns the target Paclitaxel-stabilized microtubules (bovine brain αβ-tubulin) (bovine) (UniProt Q6B856).
The target is the same in data set [3]. Kind of data set: co-sedimentation; 0.5 μM Cin8-His, 0–2 μM microtubules, 1 mM ATP plus ATP regeneration system, low ionic strength (21 mM); fraction bound by NADH-coupled assay; apparent constants.
The target is the same in data set [4]. Kind of data set: co-sedimentation; 0.5 μM Cin8-His, 0–2 μM microtubules, 1 mM ATP plus ATP regeneration system, high ionic strength (88 mM); fraction bound by NADH-coupled assay; apparent constants.
Data set [5] shares this target. The data set can be described thus: co-sedimentation; 0.5 μM Cin8-His, 0–2 μM microtubules, 1 mM ATP plus ATP regeneration system, low ionic strength (21 mM); fraction bound by NADH-coupled assay; apparent constants. This is another data set of the same source.
The target is the same in data set [6]. The data set can be described thus: co-sedimentation; 0.5 μM Cin8-His, 0–2 μM microtubules, 1 mM ATP plus ATP regeneration system, high ionic strength (88 mM); fraction bound by NADH-coupled assay; apparent constants. This is another data set of the same source.
Data set [7] shares this target. The data set can be described thus: co-sedimentation; Cin8-His with microtubules, no added nucleotide, low ionic strength (21 mM), 298 K; Cin8 left in the supernatant measured by the NADH coupled ATPase assay; apparent constants.
The target is the same in data set [8]. Kind of data set: co-sedimentation; Cin8-His with microtubules, no added nucleotide, high ionic strength (88 mM), 298 K; Cin8 left in the supernatant measured by the NADH coupled ATPase assay; apparent constants.
Data set [9] addresses Pre-formed microtubule·Eg5 complex (bovine | human) (UniProt Q6B856). Kind of data set: stopped-flow light scattering; 0.5–5 μM Cin8-His rapidly mixed with a pre-formed microtubule·Eg5 complex (0.5 μM Eg5, 0.5 μM microtubules), low ionic strength, 298 K; amplitudes fit to Equation 6, observed rates to Equation 8.
For data set [10] the target is unchanged. The description is as above. This is another data set of the same source.
The target of data set [11] is Paclitaxel-stabilized microtubules (bovine brain αβ-tubulin) (bovine) (UniProt Q6B856). The data set can be described thus: co-sedimentation; 4 μM Cin8-trx, 1 μM microtubules, 20 μM paclitaxel; ATPase buffer, without glycerol, plus DTT, PIPES pH 6.9, sodium phosphate pH 7.2, 10 mM NaCl or 10 mM potassium acetate.
Data set [12] shares this target. The data set can be described thus: co-sedimentation; competition: 0–14 μM Cin8-trx added to 2 μM Eg5 and 2 μM microtubules, 60 min at 298 K before centrifugation, low ionic strength; fraction Eg5 bound fit to Equation 5 with Kd,Eg5 fixed; apparent.
Data set [13] shares this target. Kind of data set: co-sedimentation; competition: 0–14 μM Cin8-trx added to 2 μM Eg5 and 2 μM microtubules, 60 min at 298 K before centrifugation, high ionic strength; fraction Eg5 bound fit to Equation 5 with Kd,Eg5 fixed; apparent.
Data set [14] has the same target. Kind of data set: co-sedimentation; 2 μM kinesin, 0–4 μM paclitaxel-stabilised microtubules, no added nucleotide, high ionic strength (88 mM; ATPase buffer with 75 mM KCl), 298 K, 100,000 × g 30 min; supernatant and pellet by SDS-PAGE; apparent constants, fit to Equation 3.
Data set [15] has the same target. The data set can be described thus: co-sedimentation; 2 μM kinesin, 0–4 μM paclitaxel-stabilised microtubules, no added nucleotide, low ionic strength (21 mM; ATPase buffer with 7.5 mM KCl), 298 K, 100,000 × g 30 min; supernatant and pellet by SDS-PAGE; apparent constants, fit to Equation 3.
Data set [16] shares this target. The data set can be described thus: co-sedimentation; 2 μM kinesin, 0–4 μM paclitaxel-stabilised microtubules, no added nucleotide, high ionic strength (88 mM; ATPase buffer with 75 mM KCl), 298 K, 100,000 × g 30 min; supernatant and pellet by SDS-PAGE; apparent constants, fit to Equation 3. This is another data set of the same source.
Data set [17] shares this target. Kind of data set: co-sedimentation; 2 μM kinesin, 0–4 μM paclitaxel-stabilised microtubules, no added nucleotide, low ionic strength (21 mM; ATPase buffer with 7.5 mM KCl), 298 K, 100,000 × g 30 min; supernatant and pellet by SDS-PAGE; apparent constants, fit to Equation 3. The source holds these as a separate data set.
Setting [18] is: microtubule-stimulated (2 μM bovine brain microtubules, paclitaxel-stabilized).

Read-outs that look alike come from different tables or passages of the source.

B1: Cin8-His (Cin8 motor domain) (Saccharomyces cerevisiae S288C; DEL254-353/DEL32-69/INS253NNNNNSS) (protein)
chain: ISINTTGDTGITAQMNAKRYTVDKVFGPGASQDLIFDEVAGPLFQDFIKGYNCTVLVYGMTSTGKTYTMTGDEKLYNGELSDAAGIIPRVLLKLFDTLELQQNDYVVKCSFIELYNEELKDLLDSNSNGSSNTGFDGQFMKKLRIFDSSTANNTTSNSASSSRSNSRNSSPRSLNDLTPKAALLNNNNNSSSSRSHTIFTITLYKKHQDELFRISKMNLVDLAGSENINRSGALNQRAKEAGSINQSLLTLGRVINALVDKSGHIPFRESKLTRLLQDSLGGNTKTALIATISPAKVTSEETCSTLEYASKAKNIKNKPQLGSFIMKDILVKNITMELAKIKSDLLSTKSKEGIYMSQDHYKNLNSDLESYKN
notes: motor domain residues 70-535; N-terminal His6 and TEV site tags kept; expressed in E. coli B834(DE3); monomeric in solution
Regarding B1, in data set [1] (microtubule-stimulated), the Michaelis-Menten constant (Km) was determined as 45 ± 4 µM and the kcat is 0.36 ± 0.22 s^−1 site^−1.

B2: Cin8-His (S. cerevisiae kinesin-5 Cin8 motor domain, residues 70–535, with N-terminal His6 and TEV cleavage tags) (domain or fragment)
chain: ISINTTGDTGITAQMNAKRYTVDKVFGPGASQDLIFDEVAGPLFQDFIKGYNCTVLVYGMTSTGKTYTMTGDEKLYNGELSDAAGIIPRVLLKLFDTLELQQNDYVVKCSFIELYNEELKDLLDSNSNGSSNTGFDGQFMKKLRIFDSSTANNTTSNSASSSRSNSRNSSPRSLNDLTPKAALLRKRLRTKSLPNTIKQQYQQQQAVNSRNNSSSNSGSTTNNASSNTNTNNGQRSSMAPNDQTNGIYIQNLQEFHITNAMEGLNLLQKGLKHRQVASTKMNDFSSRSHTIFTITLYKKHQDELFRISKMNLVDLAGSENINRSGALNQRAKEAGSINQSLLTLGRVINALVDKSGHIPFRESKLTRLLQDSLGGNTKTALIATISPAKVTSEETCSTLEYASKAKNIKNKPQLGSFIMKDILVKNITMELAKIKSDLLSTKSKEGIYMSQDHYKNLNSDLESYKN
B2 registered a K0.5,MT of the microtubule-stimulated steady-state ATPase (NADH coupled assay), 21 mM ionic strength in [2] of 0.08 µM. This molecule displayed a K0.5,MT of the microtubule-stimulated steady-state ATPase (NADH coupled assay), 88 mM ionic strength in data set [2] of 1.8 µM. The Kd in [3] was 140 nM; in data set [4], 960 nM; in data set [5], 110 nM; in data set [6], 1600 nM; in data set [7], 260 nM; in [8], 180 nM. In addition, the stoichiometry N in [3] came out at 3.7; in data set [4], 6.1; in data set [7] it was 3.1; in data set [8] it was 3. The kon in [9] was determined as 1.1e+06 M⁻¹ s⁻¹; in data set [10], 1e+06 M⁻¹ s⁻¹. In addition, in data set [10], the K0.5 (Cin8 concentration at half-maximal light-scattering amplitude) was found to be 0.27 µM. Moreover, the koff in [10] amounted to 3.1 s⁻¹.

B3: Cin8-trx (Cin8 motor domain, residues 70–535, fused to N-terminal thioredoxin (TrxA), His6, TEV cleavage and Arg9 tags) (domain or fragment)
chain: B2 chain
For B3, the stoichiometry N in [11] was 4; in data set [14] it was 4; in [15], 5.1; in [16], 3 to 5. In addition, the Kd in data set [12] is 2 nM; in data set [13] it was 590 nM; in data set [14] it was 130 nM; in [15], 1 nM; in data set [17] it was 13 nM.

B4: Cin8-His (Cin8 motor domain) (Saccharomyces cerevisiae S288C) (protein)
chain: NEELNITVAVRCRGRNEREISMKSSVVVNVPDITGSKEISINTTGDTGITAQMNAKRYTVDKVFGPGASQDLIFDEVAGPLFQDFIKGYNCTVLVYGMTSTGKTYTMTGDEKLYNGELSDAAGIIPRVLLKLFDTLELQQNDYVVKCSFIELYNEELKDLLDSNSNGSSNTGFDGQFMKKLRIFDSSTANNTTSNSASSSRSNSRNSSPRSLNDLTPKAALLRKRLRTKSLPNTIKQQYQQQQAVNSRNNSSSNSGSTTNNASSNTNTNNGQRSSMAPNDQTNGIYIQNLQEFHITNAMEGLNLLQKGLKHRQVASTKMNDFSSRSHTIFTITLYKKHQDELFRISKMNLVDLAGSENINRSGALNQRAKEAGSINQSLLTLGRVINALVDKSGHIPFRESKLTRLLQDSLGGNTKTALIATISPAKVTSEETCSTLEYASKAKNIKNKPQLGSFIMKDILVKNIT
notes: as for B1
For the molecule B4, in data set [1] (setting [18]), the Km turned out to be 29 ± 16 µM and the kcat is 0.38 ± 0.04 s^−1 site^−1.

The values are drawn from paper PMC5582858, “The yeast kinesin-5 Cin8 interacts with the microtubule in a noncanonical manner” (The Journal of Biological Chemistry, 2017).
